This note sets out measurements from US20070197431A1 (published 2007).

Test [1] concerns the target T1, human EGF receptor (human, UniProt P00533 25-1210). Kind of test: GST pull-down from Sf9 lysates, receptor blot. The protocol:
(§1) For pull-down experiments receptors were expressed in Sf9 insect cells, cleared lysates were incubated for 1.5 hours with 3 μg immobilized GST or GST-32, and beads were washed as previously described (Carraway, K. L., III, et al., Nature, 387:512-16 (1997)). MDA-MB-453 cells were treated for 5 minutes without or with 10 nM NRG1β, lysed as previously described (Sweeney, C., et al., J. Biol. Chem., 275:19803-07 (2000)), and cleared lysates were incubated with GST and GST-32 as above. Precipitated proteins were resolved by 8% SDS-PAGE, transferred to nitrocellulose and visualized by blotting with anti-phosphotyrosine (RC20, Transduction Laboratories) or anti-receptor antibodies.
(§2) To confirm the specificity of the interaction we employed a GST fusion of clone 32 in receptor pull-down experiments. A GST fusion of clone 32 was used instead of full-length Nrdp1 because we observed that GST-Nrdp1 is insoluble in bacteria. We have expressed each of the ErbB family members in Sf9 cells (Carraway, K. L., III, et al., Nature, 387:512-16 (1997)), incubated cleared lysates with immobilized GST or GST-32, and analyzed associated receptors by blotting precipitates with receptor-specific antibodies. We again observed that clone 32 is capable of physically interacting with ErbB3 and ErbB4, but not EGF receptor or ErbB2.

Test [2] deals with T2, human ErbB2 (human, UniProt P04626 23-1255). Kind of test: GST pull-down from Sf9 lysates, receptor blot. The protocol:
as §1, §2

Test [3] deals with T1, human EGF receptor. Kind of test: co-immunoprecipitation from co-infected Sf9 cells, anti-FLAG blot. The text has this: (§3) Baculovirus encoding Nrdp1 tagged at its amino terminus with FLAG epitope was created as described previously (Guy, P. M., et al., Proc. Natl. Acad. Sci USA., 91:8132-36 ((1994)). Baculoviruses encoding human EGF receptor, human ErbB2, bovine ErbB3 or human ErbB4 have been described previously (Carraway, K. L., III, et al., Nature, 387:512-16 (1997)). For co-immunoprecipitation experiments Sf9 cells were infected with receptor viruses and co-infected either wild type or Nrdp1 baculovirus. 48 hours after infection cleared NP-40 lysates were immunoprecipitated with receptor antibodies and blotted with antibodies directed to receptors or FLAG epitope as described above.

The target of test [4] is T2, human ErbB2. The description is as above.
Excerpt: as §3

B1: GST fusion protein of clone 32 encompassing Nrdp1 residues I135 to I317 (other)
chain: IKHLRSVVQQQQTRIAELEKTSAEHKHQLAEQKRDIQLLKAYMRAIRSVNPNLQNLEETIEYNEILEWVNSLQPARVTRWGGMISTPDAVLQAVIKRSLVESGCPASIVNELIENAHERSWPQGLATLETRQMNRRYYENYVAKRIPGKQAVVVMACENQHMGDDMVQEPGLVMIFAHGVEEI
notes: Expressed in bacteria and immobilized on beads (3 ug) for the pull-downs; also called GST-32; GST fusion of clone 32; not shown: glutathione S-transferase encoded by the pGEX vector
Take B1: the binding result with human EGF receptor [1] and in the test with human ErbB2 [2] was “no binding (tested: 3 ug immobilized GST-32)” throughout.

B2: Nrdp1 tagged at its amino terminus with FLAG epitope (baculovirus, Sf9 insect cells) (other)
chain: DYKDDDDKMGYDVTRFQGDVDEDLICPICSGVLEEPVQAPHCEHAFCNACITQWFSQQQTCPVDRSVVTVAHLRPVPRIMRNMLSKLQIACDNAVFGCSAVVRLDNLMSHLSDCEHNPKRPVTCEQGCGLEMPKDELPNHNCIKHLRSVVQQQQTRIAELEKTSAEHKHQLAEQKRDIQLLKAYMRAIRSVNPNLQNLEETIEYNEILEWVNSLQPARVTRWGGMISTPDAVLQAVIKRSLVESGCPASIVNELIENAHERSWPQGLATLETRQMNRRYYENYVAKRIPGKQAVVVMACENQHMGDDMVQEPGLVMIFAHGVEEI
notes: Construct used for the Sf9 co-immunoprecipitations; also called FLAG-Nrdp1; neuregulin receptor degradation protein-1
On to B2, for which the binding result with human EGF receptor [3] and with human ErbB2 [4] was “no binding” in each case.
